Test system: human Mcl-1
Assay: In vivo Mcl-1 degradation in EMT6 syngeneic breast cancer model (western blot)
Conditions: EMT6 cells over-expressing human Mcl-1 in BALB/c mice; 20 mg/Kg i.v.; 8 hours after treatment; vs control mice (Iso-mAb)
Method: FIG. 7. Netrin-1 interference triggers Mcl-1 degradation in vitro and in vivo. (A,B): Netrin-1 silencing triggers Mcl-1 degradation. Breast cancer MCF7 cells were transfected with scramble (siCTRL) or netrin-1 (siNet) targeting siRNAs. 48 hours after transfection, cells were lysed by scraping and sonication in SDS-containing buffer. Protein levels of Mcl-1, netrin-1, and UNC5B, as well as B-actin and Ku80, used as housekeeping genes, were evaluated by western blot (A). Relative Mcl-1 protein levels, normalized to β-actin or Ku80, are shown in (B) (n=2, *** p<0.001, **** p<0.0001, ordinary two-way ANOVA with Sidak's multiple comparisons test). […] Protein levels of Mcl-1 were then evaluated by western blot (C). […] Mcl-1 protein was quantified in paraffin-embedded slices on paired C1D1 and C3D1 biopsies and compared with clinical benefit (stable disease, SD, or progression disease, PD, at 6 weeks). Mcl-1 intensity was assessed in all, PD or SD biopsies (E) (n=6, Wilcoxon test). […]
For immunoblotting analysis, cells were lysed by sonication in SDS buffer (10 mM Tris-HCl pH 7.4, 10% glycerol, 5% SDS, 1% TX-100, 100 mM DTT) in the presence of protease inhibitor cocktail (Roche Applied Science). […] Protein band quantification was performed with Image Lab 6.1 software (Bio-rad), considering the adjusted volume intensity normalized with housekeeping genes. […]

B1: NP137: humanized anti-netrin-1 monoclonal antibody, VH SEQ ID NO: 22, VL SEQ ID NO: 16, human IgG1 (antibody, V domains shown)
VH: QVQLQQSGPGLVKPSQTLSLTCAISGYTFTSYNMHWVRQATGQGLEWMGAIYPGNGDTSYNQKFKGRLTISKDTSKNQVVLTMTNMDPVDTATYYCARGGTGFAYWGQG
VL: DIQMTQSPSSLSASVGDRVTITCKASQSVSNDVAWYQQKPGQAPRLLIYYASNRYTGIPPRFSGSGYGTDFTLTINNIESEDAAYYFCQQDYSSPWTFGQG
modifications: human IgG1 constant region; humanized variant; MISC_FEATURE - CDR according to IGMT
Mcl-1 protein levels in tumors: significantly reduced Mcl-1 protein levels
